Measured values taken from US6248520, “Nucleic acid molecules encoding nuclear hormone receptor coactivators and uses thereof” (The Rockefeller University, dated 2001).

Target: T1, human thyroid hormone receptor α (TRα-1), intact (human, UniProt P10827-2)
T1 sequence: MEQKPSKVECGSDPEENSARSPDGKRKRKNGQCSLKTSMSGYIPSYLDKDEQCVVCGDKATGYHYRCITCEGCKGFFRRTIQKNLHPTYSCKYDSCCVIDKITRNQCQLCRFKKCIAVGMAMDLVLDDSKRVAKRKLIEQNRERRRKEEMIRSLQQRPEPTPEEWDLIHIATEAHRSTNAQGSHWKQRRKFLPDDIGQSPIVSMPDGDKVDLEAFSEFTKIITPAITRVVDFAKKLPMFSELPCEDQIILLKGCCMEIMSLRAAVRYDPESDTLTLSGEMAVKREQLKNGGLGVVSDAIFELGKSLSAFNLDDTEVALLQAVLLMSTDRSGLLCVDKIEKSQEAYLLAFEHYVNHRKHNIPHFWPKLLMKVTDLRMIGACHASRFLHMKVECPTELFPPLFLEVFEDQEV
Test: Far Western: 35S-labelled TRα on blotted TR-TRAP complex (TRAP100 is one of the other TRAPs)
Description: For coimmunoprecipitation (7), 2 μl of anti-FLAG M2 affinity gel (Kodak) and 3 μl of ^35S-labeled input proteins were used. For Far Western analyses, 500 ng of purified TR-TRAP complex was resolved by SDS-PAGE and transferred onto a nitrocellulose membrane. The blots were probed with in vitro translated, ^35S-labeled human TRα-1 or TRα-1 C-terminus (residues 122–410) in the presence and absence of 10^-7 M T_3.
Figure 7A: FIG. 7. Ligand-dependent interaction between TRα and TRAP220. (A) Far Western. 500 ng of purified TR-TRAP complex was separated by SDS-PAGE (8% gel), blotted and probed with ^35S-labeled full length (TR) and C-terminal (TRα-C) hTRα in the presence and absence of 10^-7 M […] (T_3). The arrow head indicates the position of the TRAP220 band. (B) Co-immunoprecipitation of TR-TRAP220 from in vitro translated products. The indicated combinations of ^35S-labeled TRAP220, TRAP100 and FLAG-TRα were incubated in the presence and absence of […] (T_3), and subjected to immunoprecipitation with anti-FLAG antibodies (M2 agarose) that recognizes only FLAG-tagged TRα. Figure 7B: Figure 8A: FIG. 8. Nuclear hormone receptor interactions with […] and TRAP100. (A) Ligand-dependent interactions of GST-TRAP220/1 and 2 with ^35S-labeled TRα. […]

B1: Thyroid Receptor-associated protein (TRAP) 100 (other)
chain: MKVVNLKQAILQAWKERWSDYQWAINMKKFFPKGATWDILNLADALLEQAMIGPSPNPLILSYLKYAISSQMVSYSSVLTAISKFDDFSRDLCVQALLDIMDMFCDRLSCHGKAEECIGLCRALLSALHWLLRCTAASAERLREGLEAGTPAAGEKQLAMCLQRLEKTLSSTKNRALLHIAKLEEASSWTAIEHSLLKLGEILANLSNPQLRSQAEQCGTLIRSIPTMLSVHAEQMHKTGFPTVHAVILLEGTMNLTGETQSLVEQLTMVKRMQHIPTPLFVLEIWKACFVGLIESPEGTEELKWTAFTFLKIPQVLVKLKKYSHGDKDFTEDVNCAFEFLLKLTPLLDKADQRCNCDCTNFLLQECGKQGLLSEASVNNLMAKRKADREHAPQQKSGENANIQPNIQLILRAEPTVTNILKTMDADHSKSPEGLLGVLGHMLSGKSLDLLLAAAAATGKLKSFARKFINLNEFTTYGSEESTKPASVRALLFDISFLMLCHVAQTYGSEVILSESRTGAEVPFFETWMQTCMPEEGKILNPDHPCFRPDSTKVESLVALLNNSSEMKLVQMKWHEACLSISAAILEILNAWENGVLAFESIQKITDNIKGKVCSLAVCAVAWLVAHVRMLGLDEREKSLQMIRQLAGPLFSENTLQFYNERVVIMNSILERMCADVLQQTATQIKFPSTGVDTMPYWNLLPPKRPIKEVLTDIFAKVLEKGWVDSRSIHIFDTLLHMGGVYWFCNNLIKELLKETRKEHTLRAVELLYSIFCLDMQQVTLVLLGHILPGLLTDSSKWHSLMDPPGTALAKLAVWCALSSYSSHKGQASTRQKKRHREDIEDYISLFPLDDVQPSKLMRLLSSNEDDANILSSPTDRSMSSSLSASQLHTVNMRDPLNRVLANLFLLISSILGSRTAGPHTQFVQWFMEECVDCLEQGGRGSVLQFMPFTTVSELVKVSAMSSPKVVLAITDLSLPLGRQVAAKAIAAL
B1: no binding.
